Laboratory results published in publication PMC10397247.
Values belong to the binder of their own block, whether it stands above or below them.

Assays:
4H3907-bN = target: T1, 4H3907-bN; test: two-hybrid library CCNG1;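 also: natural log of median RNA to DNA barcode read ratio; higher means stronger binding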
T1 chain: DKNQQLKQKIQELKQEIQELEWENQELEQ

4H3601-bN = target: T2, 4H3601-bN; test: two-hybrid library CCNG1;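 also: natural log of median RNA to DNA barcode read ratio; higher means stronger binding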
T2 chain: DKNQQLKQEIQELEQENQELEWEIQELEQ

4H4038-bN = target: T3, 4H4038-bN; test: two-hybrid library CCNG1;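 also: natural log of median RNA to DNA barcode read ratio; higher means stronger binding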
T3 chain: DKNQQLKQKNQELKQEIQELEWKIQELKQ

4H2705-AA = target: T4, 4H2705-AA; test: two-hybrid library CCmax; conditions: mean of both orientations;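 also: natural log of median RNA to DNA barcode read ratio; higher means stronger binding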
T4 chain: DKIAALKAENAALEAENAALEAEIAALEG

4H_BCR = target: T5, 4H_BCR; test: two-hybrid library CCmax; conditions: mean of both orientations;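 also: natural log of median RNA to DNA barcode read ratio; higher means stronger binding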
T5 chain: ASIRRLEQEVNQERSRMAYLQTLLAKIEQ

4H3590-AA = target: T6, 4H3590-AA; test: two-hybrid library CCmax; conditions: mean of both orientations;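 also: natural log of median RNA to DNA barcode read ratio; higher means stronger binding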
T6 chain: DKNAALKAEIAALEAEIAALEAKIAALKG

4H2888-AA = target: T7, 4H2888-AA; test: two-hybrid library CCmax; conditions: mean of both orientations
T7 chain: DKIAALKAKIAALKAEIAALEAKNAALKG

4H3625-AA = target: T8, 4H3625-AA; test: two-hybrid library CCmax; conditions: mean of both orientations
T8 chain: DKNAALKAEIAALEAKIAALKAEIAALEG

4H1392-AA = target: T9, 4H1392-AA; test: two-hybrid library CCmax
T9 chain: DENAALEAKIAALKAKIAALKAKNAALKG

4H4038-AA = target: T10, 4H4038-AA; test: two-hybrid library CCmax; conditions: mean of both orientations
T10 chain: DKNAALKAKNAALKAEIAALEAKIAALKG

O11-AA = target: T11, O11-AA; test: two-hybrid library CCmax; conditions: mean of both orientations
T11 chain: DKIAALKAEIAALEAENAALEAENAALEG

4H2622-AA = target: T12, 4H2622-AA; test: two-hybrid library CCmax; conditions: mean of both orientations
T12 chain: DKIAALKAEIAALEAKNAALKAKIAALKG

4H3049-AA = target: T13, 4H3049-AA; test: two-hybrid library CCmax; conditions: mean of both orientations
T13 chain: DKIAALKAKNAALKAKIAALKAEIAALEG

4H451-AA = target: T14, 4H451-AA; test: two-hybrid library CCmax; conditions: mean of both orientations
T14 chain: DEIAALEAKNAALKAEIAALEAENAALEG

O14-AA = target: T15, O14-AA; test: two-hybrid library CCmax; conditions: mean of both orientations
T15 chain: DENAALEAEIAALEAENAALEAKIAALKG

GCN2_T = test: two-hybrid library CCmax
O13-AA = target: T16, O13-AA; test: two-hybrid library CCmax; conditions: mean of both orientations
T16 chain: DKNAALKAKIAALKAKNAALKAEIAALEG

4H384-AA = target: T17, 4H384-AA; test: two-hybrid library CCmax; conditions: mean of both orientations
T17 chain: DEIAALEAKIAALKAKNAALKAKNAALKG

4H510-AA = target: T18, 4H510-AA; test: two-hybrid library CCmax; conditions: mean of both orientations
T18 chain: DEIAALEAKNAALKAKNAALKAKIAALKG

4H2736-AA = target: T19, 4H2736-AA; test: two-hybrid library CCmax; conditions: mean of both orientations
T19 chain: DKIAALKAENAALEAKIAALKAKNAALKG

4H337-AA = target: T20, 4H337-AA; test: two-hybrid library CCmax; conditions: mean of both orientations
T20 chain: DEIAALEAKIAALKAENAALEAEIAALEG

4H_APH = target: T21, 4H_APH; test: two-hybrid library CCmax; conditions: mean of both orientations
T21 chain: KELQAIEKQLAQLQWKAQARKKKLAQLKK

4H3587-AA = target: T22, 4H3587-AA; test: two-hybrid library CCmax; conditions: mean of both orientations
T22 chain: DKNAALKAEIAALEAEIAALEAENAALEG

4H3905-AA = target: T23, 4H3905-AA; test: two-hybrid library CCmax; conditions: mean of both orientations
T23 chain: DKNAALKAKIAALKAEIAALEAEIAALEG

4H3129-AA = target: T24, 4H3129-AA; test: two-hybrid library CCmax
T24 chain: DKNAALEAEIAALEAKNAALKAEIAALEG

4H43-AA = target: T25, 4H43-AA; test: two-hybrid library CCmax; conditions: mean of both orientations
T25 chain: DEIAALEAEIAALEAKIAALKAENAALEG

4H_GCN4 = test: two-hybrid library CCmax
4H477-bH = target: T26, 4H477-bH; test: two-hybrid library CCNG1
T26 chain: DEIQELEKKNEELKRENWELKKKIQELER

4H319-bH = target: T27, 4H319-bH; test: two-hybrid library CCNG1
T27 chain: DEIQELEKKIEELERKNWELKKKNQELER

4H3277-bH = target: T28, 4H3277-bH; test: two-hybrid library CCNG1
T28 chain: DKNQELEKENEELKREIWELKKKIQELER

4H2717-bH = target: T29, 4H2717-bH; test: two-hybrid library CCNG1
T29 chain: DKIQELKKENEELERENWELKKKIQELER

4H2503-bH = target: T30, 4H2503-bH; test: two-hybrid library CCNG1
T30 chain: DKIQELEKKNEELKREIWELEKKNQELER

4H2473-bH = target: T31, 4H2473-bH; test: two-hybrid library CCNG1
T31 chain: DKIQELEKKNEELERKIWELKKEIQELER

4H741-bH = target: T32, 4H741-bH; test: two-hybrid library CCNG1
T32 chain: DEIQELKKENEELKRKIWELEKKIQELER

4H492-bH = target: T33, 4H492-bH; test: two-hybrid library CCNG1
T33 chain: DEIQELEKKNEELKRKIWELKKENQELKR

4H3057-bH = target: T34, 4H3057-bH; test: two-hybrid library CCNG1
T34 chain: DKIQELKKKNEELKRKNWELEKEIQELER

4H2588-bH = target: T35, 4H2588-bH; test: two-hybrid library CCNG1
T35 chain: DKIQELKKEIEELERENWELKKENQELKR

4H40-bH = target: T36, 4H40-bH; test: two-hybrid library CCNG1
T36 chain: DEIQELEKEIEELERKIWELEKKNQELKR

4H348-bH = target: T37, 4H348-bH; test: two-hybrid library CCNG1
T37 chain: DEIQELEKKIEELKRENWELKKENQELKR

4H2915-bH = target: T38, 4H2915-bH; test: two-hybrid library CCNG1
T38 chain: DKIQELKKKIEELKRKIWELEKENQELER

4H2692-bH = target: T39, 4H2692-bH; test: two-hybrid library CCNG1
T39 chain: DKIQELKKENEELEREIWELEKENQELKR

4H2438-bH = target: T40, 4H2438-bH; test: two-hybrid library CCNG1
T40 chain: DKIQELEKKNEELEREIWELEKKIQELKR

4H2839-bH = target: T41, 4H2839-bH; test: two-hybrid library CCNG1
T41 chain: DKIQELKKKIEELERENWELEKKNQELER

Chain of 4H_GCN4 (chain, as listed by the source): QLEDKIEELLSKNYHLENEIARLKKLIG

interaction score (4H3907-bN): -1.37
interaction score (4H3601-bN): -1.57
interaction score (4H4038-bN): -1.28
Binder: DKNQQLKQEIQELEQENQELEWEIQELEQ [4H3601-bN]

interaction score (4H2705-AA): -1.59
interaction score (4H_BCR): -2.2
interaction score (4H3590-AA): 1.89
interaction score (4H2888-AA): -0.448
interaction score (4H3625-AA): -0.223
interaction score (4H1392-AA): -0.666
interaction score (4H4038-AA): 0.56
interaction score (O11-AA): 1.25
interaction score (4H2622-AA): -1.4
interaction score (4H3049-AA): -0.0185
interaction score (4H451-AA): -0.924
interaction score (O14-AA): 0.474
interaction score (GCN2_T): -1.63
interaction score (O13-AA): -1.99
interaction score (4H384-AA): -1.28
interaction score (4H510-AA): -1.62
interaction score (4H2736-AA): -1.42
interaction score (4H337-AA): -0.783
interaction score (4H_APH): -1.59
interaction score (4H3587-AA): 2.24
interaction score (4H3905-AA): 0.91
interaction score (4H3129-AA): -1.07
interaction score (4H43-AA): 1.25
interaction score (4H_GCN4): -1.48
Binder: DENAALEAKIAALKAKIAALKAKNAALKG [4H1392-AA]

interaction score (4H477-bH): 0.358
interaction score (4H319-bH): -1.85
interaction score (4H3277-bH): -0.355
interaction score (4H2717-bH): 0.187
interaction score (4H2503-bH): 0.644
interaction score (4H2473-bH): 1.01
interaction score (4H741-bH): -0.318
interaction score (4H492-bH): -0.644
interaction score (4H3057-bH): 1.41
interaction score (4H2588-bH): -0.0625
interaction score (4H40-bH): -0.00537
interaction score (4H348-bH): -0.861
interaction score (4H2915-bH): 1.73
interaction score (4H2692-bH): 0.322
interaction score (4H2438-bH): -0.05
interaction score (4H2839-bH): 0.0743
Binder: DKIQELEKKNEELEREIWELEKKIQELKR [4H2438-bH]
